In patent publication US10294487B2, “Methods and compositions involving ALS variants with native substrate preference” (E I DU PONT DE NEMOURS AND COMPANY, priority 2012, dated 2019):
Substitutions are numbered along the chain they refer to. Names and notes keep the numbering of the source.

B1: UBQ10: GM-ALS_P178S_D357E: UBQ10 promoter driving ALS variant SEQ ID NO 17 in transgenic soybean (protein)
chain: MAATASRTTRFSSSSSHPTFPKRITRSTLPLSHQTLTKPNHALKIKCSISKPPTAAPFTKEAPTTEPFVSRFASGEPRKGADILVEALERQGVTTVFAYPGGASMEIHQALTRSAAIRNVLPRHEQGGVFAAEGYARSSGLPGVCIATSGPGATNLVSGLADALMDSVPVVAITGQVSRRMIGTDAFQETPIVEVSRSITKHNYLILDVDDIPRVVAEAFFVATSGRPGPVLIDIPKDVQQQLAVPNWDEPVNLPGYLARLPRPPAEAQLEHIVRLIMEAQKPVLYVGGGSLNSSAELRRFVELTGIPVASTLMGLGTFPIGDEYSLQMLGMHGTVYANYAVDNSDLLLAFGVRFDERVTGKLEAFASRAKIVHIDIDSAEIGKNKQAHVSVCADLKLALKGINMILEEKGVEGKFDLGGWREEINVQKHKFPLGYKTFQDAISPQHAIEVLDELTNGDAIVSTGVGQHQMWAAQFYKYKRPRQWLTSGGLGAMGFGLPAAIGAAVANPGAVVVDIDGDGSFIMNVQELATIRVENLPVKILLLNNQHLGMVVQWEDRFYKSNRAHTYLGDPSSESEIFPNMLKFADACGIPAARVTKKEELRAAIQRMLDTPGPYLLDVIVPHQEHVLPMIPSNGSFKDVITEGDGRTRY
B2: UBQ10: GM-ALS_A103T_P178S: UBQ10 promoter driving ALS variant SEQ ID NO 7 in transgenic soybean (protein)
chain: B1 chain with A103T, E357D
B3: UBQ10: GM-ALS_A103T_P178S_D357E: UBQ10 promoter driving ALS variant SEQ ID NO 8 in transgenic soybean (protein)
chain: B1 chain with A103T
B4: UBQ10: GM-ALS_W555L: UBQ10 promoter driving ALS variant SEQ ID NO 26 in transgenic soybean (protein)
chain: B1 chain with S178P, E357D, W555L
B5: SAMS: GM-ALS_P178A: SAMS promoter driving ALS variant SEQ ID NO 9 in transgenic soybean (protein)
chain: B1 chain with S178A, E357D
B6: SAMS: GM-ALS_P178S_D357E: SAMS promoter driving ALS variant SEQ ID NO 17 in transgenic soybean (protein)
chain: B1 chain
B7: SAMS: GM-ALS_A103T_P178S: SAMS promoter driving ALS variant SEQ ID NO 7 in transgenic soybean (protein)
chain: B1 chain with A103T, E357D
B8: SAMS: GM-ALS_A103T_P178S_D357E: SAMS promoter driving ALS variant SEQ ID NO 8 in transgenic soybean (protein)
chain: B1 chain with A103T
B9: SAMS: GM-ALS W555L: SAMS promoter driving ALS variant SEQ ID NO 26 in transgenic soybean (protein)
chain: B1 chain with S178P, E357D, W555L
B10: SAMS: GM-ALS_P178A_W555L: SAMS promoter driving HRA ALS variant SEQ ID NO 10 in transgenic soybean (protein)
chain: B1 chain with S178A, E357D, W555L
B11: M354V: Site-directed mutation in S. cerevisiae ALS; position M351, 332 (protein, UniProt P07342 91-687, looked up, variant M354V)
Acetolactate synthase …: GLTGGQIFNEMMSRQNVDTVFGYPGGAILPVYDAIHNSDKFNFVLPKHEQGAGHMAEGYARASGKPGVVLVTSGPGATNVVTPMADAFADGIPMVVFTGQVPTSAIGTDAFQEADVVGISRSCTKWNVMVKSVEELPLRINEAFEIATSGRPGPVLVDLPKDVTAAILRNPIPTKTTLPSNALNQLTSRAQDEFVMQSINKAADLINLAKKPVLYVGAGILNHADGPRLLKELSDRAQIPVTTTLQGLGSFDQEDPKSLDMLGVHGCATANLAVQNADLIIAVGARFDDRVTGNISKFAPEARRAAAEGRGGIIHFEVSPKNINKVVQTQIAVEGDATTNLGKMMSKIFPVKERSEWFAQINKWKKEYPYAYMEETPGSKIKPQTVIKKLSKVANDTGRHVIVTTGVGQHQMWAAQHWTWRNPHTFITSGGLGTMGYGLPAAIGAQVAKPESLVIDIDGDASFNMTLTELSSAVQAGTPVKILILNNEEQGMVTQWQSLFYEHRYSHTHQLNPDFIKLAEAMGLKGLRVKKQEELDAKLKEFVSTKGPVLLEVEVDKKVPVLPMVAGGSGLDEFINFDPEVERQQTELRHKRTGGKH
B12: K251T: Site-directed mutation in S. cerevisiae ALS; position K256, 237 (protein, UniProt P07342 91-687, looked up, variant K251T)
Acetolactate synthase …: B11 Acetolactate synthase … with K161T, V264M
B13: D379N: Site-directed mutation in S. cerevisiae ALS; position D376, 357 (protein, UniProt P07342 91-687, looked up, variant D379N)
Acetolactate synthase …: B11 Acetolactate synthase … with V264M, D289N
B14: W586L: Site-directed mutation in S. cerevisiae ALS; position W574, 555 (protein, UniProt P07342 91-687, looked up, variant W586L)
Acetolactate synthase …: B11 Acetolactate synthase … with V264M, W496L
B15: G116S: Site-directed mutation in Saccharomyces cerevisiae ALS; position G121 A. thal., 102 G. max (protein, UniProt P07342 91-687, looked up, variant G116S)
Acetolactate synthase …: B11 Acetolactate synthase … with G26S, V264M

Test system: soybean plants
Assay: Chlorsulfuron spray test of transgenic T1 soybean plants
Assay type: in vivo
Details: chlorsulfuron 3 g ai/ha foliar; homozygous T1 plants; 8 days after treatment; 0=no effect, 100=dead plant
Procedure: T1 plants, each having an ALS variant transgene, were grown to the V1 to V2 growth stage and then sprayed with commercial chlorsulfuron formulation at a rate of 3 g ai/ha. All chlorsulfuron treatments were applied foliarly with 0.25% nonionic surfactant in a spray volume of 374 L/ha. Individual plants were compared to untreated plants of similar genetic background, evaluated for herbicide response at eight days after treatment and assigned a visual response score from 0 to 100% injury (0=no effect to 100=dead plant at day 8).
Results in Table 8 list the lowest injury among plants of a single event for constructs containing the listed expression cassette. The amino acid substituted ALS variants provided more protection than the overexpression of the native ALS gene. Seed was produced from a number of T1 plants and advanced to more extensive herbicide testing in the T2 generation.

Row | Molecule | Lowest % injury [%]
1 | B1 | 5
2 | B2 | 40
3 | B3 | 75
4 | B4 | 75
5 | B5 | 0
6 | B6 | 45
7 | B7 | 80
8 | B8 | 80
9 | B9 | 80
10 | B10 | 10

Test system: ALS
Assay: not given
Details: IP (abbreviation not defined); cited from earlier work

Row | Molecule | Resistance pattern, I50 fold increase: IP [fold]
11 | B11 | 10

Same assay, conditions: imazethapyr; cited from earlier work

Row | Molecule | Resistance pattern, I50 fold increase: IEt [fold]
12 | B11 | 90

Same assay, conditions: imidazolinone(s); cited from earlier work

Row | Molecule | Resistance pattern, I50 fold increase: IM
13 | B12 | IMs, 10-150 fold
14 | B13 | hypersensitivity
15 | B14 | IMs, 8-70 fold
16 | B15 | IMs 15-300 fold

Same assay, conditions: sulfonylurea(s); cited from earlier work

Row | Molecule | Resistance pattern, I50 fold increase: SU
17 | B12 | SU, 10-100 fold
18 | B11 | SUs, 5-85 fold
19 | B13 | SUs, 200-900 fold
20 | B14 | SUs, 1000-10000 fold
21 | B15 | SUs, 1000-10000 fold

Test system: ALS
Assay: not given
Details: pyruvate reaction; cited from earlier work

Row | Molecule | Kinetic parameters: Km | Kinetic parameters: kcat
22 | B12 | 65 % wt | 1 % wt
23 | B11 | Km, 60 % wt | kcat, 50 % wt
24 | B13 | Km, 133 % wt | kcat, 140 % wt
25 | B14 | Km, 80 % wt | kcat, 450 % wt
26 | B15 | Km, 20 % wt | kcat, 75 % wt

Test system: soybean plants
Assay: Spray test of homozygous transgenic soybean plants with five ALS-inhibitor herbicides
Assay type: in vivo
Details: chlorimuron 32 g ai/ha foliar; homozygous T1 or T2 plants
Procedure: T1 or T2 soybean plants were evaluated with qPCR to confirm they were homozygous for the transgene. Plants were sprayed at the V1 to V2 growth stage with the commercial formulations of chlorimuron (32 g ai/ha), tribenuron-methyl (16 g ai/ha), thifensulfuron-methyl (16 g ai/ha), rimsulfuron (8 g ai/ha), and imazapyr (4 g ai/ha). Each herbicide was applied foliarly with nonionic surfactant in a spray volume of 374 L/ha. The herbicide response for individual plants was determined by comparing to untreated plants of similar genetic background. Visual injury was scored on a scale of 0 to 100% injury (0=no effect to 100=dead plant). The lowest response for four treated plants of a single event from each construct with the listed expression cassette is reported.

Row | Molecule | Lowest % injury Chlorimuron [%]
27 | B1 | 20
28 | B2 | 35
29 | B3 | 5
30 | B4 | 5
31 | B5 | 0

Same assay, conditions: imazapyr 4 g ai/ha foliar; homozygous T1 or T2 plants

Row | Molecule | Lowest % injury Imazapyr [%]
32 | B1 | 40
33 | B2 | 45
34 | B3 | 50
35 | B4 | 10

Same assay, conditions: rimsulfuron 8 g ai/ha foliar; homozygous T1 or T2 plants

Row | Molecule | Lowest % injury Rimsulfuron [%]
36 | B1 | 70
37 | B2 | 80
38 | B3 | 80
39 | B4 | 80
40 | B5 | 80

Same assay, conditions: thifensulfuron-methyl 16 g ai/ha foliar; homozygous T1 or T2 plants

Row | Molecule | Lowest % injury Thifensulfuron-methyl [%]
41 | B1 | 20
42 | B2 | 35
43 | B3 | 0
44 | B4 | 5
45 | B5 | 25

Same assay, conditions: tribenuron-methyl 16 g ai/ha foliar; homozygous T1 or T2 plants

Row | Molecule | Lowest % injury Tribenuron-methyl [%]
46 | B1 | 20
47 | B2 | 65
48 | B3 | 55
49 | B5 | 80
50 | B10 | 75

Test system: soybean plants
Assay: Field spray test of homozygous T3 soybean plants with Affinity Broadspec
Assay type: in vivo
Details: Affinity Broadspec (thifensulfuron + tribenuron) 1 oz product per acre
Procedure: Homozygous T3 soybean plants with and without ALS variant transgenes were grown in a field study and sprayed at the V2 to V4 growth stage with a commercial formulation of Affinity Broadspec at 1 oz product per acre (2× typical field rate). Affinity Broadspec contains 25% thifensulfuron and 25% tribenuron by volume. The herbicide was applied foliarly with nonionic surfactant. The herbicide response for individual events was determined by comparing to untreated plants of similar genetic background. Visual injury is on a scale of 0 to 100% injury (0=no effect to 100=dead plant). The substituted ALS variants gave substantially more protection to ALS-inhibitors than overexpression of the native ALS gene.

Row | Molecule | Lowest % injury [%]
51 | B1 | 13
52 | B2 | 57
53 | B10 | 5
